Assay results taken from patent US20210147541A1.

B1: anti-AVM antibody (antibody, V domains shown)
VH: EVQLVESGGGLVQPGRSLKLSCAASGFTFSNYAMAWVRRAPTKGLEWVASISNGGGNTYYRDSVKGRFTISRDDAKNTLYLQMDSLRSEDTATYYCARHGNYIYYGSFFDYWGQGVMVTVSS
VL: QFVLSQPNSVSTNLGSTVKLSCKRSTGNIGSNYVSWYQQHEGRSPTTMIYRDDKRPDGVPDRFSGSIDRSSDSALLTINNVQTEDEADYFCQSYSSGINIFGGGTKLTVLG
B2: CADM301 scFv-hG4PE (Fc fusion)
VH: QVQLVQSGAEVRRPGTSVKVSCKASGYSFTSYDINWVRLATGQGLEWMGWMNPNTGDTGSPQKFQDRVTMTRDISTGTAYLELRGLKSEDTAIYYCARGFLVTAYTAEFFPHWGQGTLVTVSS
VL: SYVLTQPPSVSVAPGKTARLTCGGNNIGSKSVHWYQQRPGQAPVLVINYDSDRPSGIPERFSGSNSENTATLTISRVEAGDEADYYCQVWDSGSDHVVFGGGTQLIIL
B3: CADM3102 scFv-hG4PE (Fc fusion)
VH: QMQLVQSGAEVKKPGSSVKVSCKASGGTFSSYAISWVRQAPGQGLEWMGGIIPMSGTANYAQKFQGRVTITADESTSTAYMELSSLRSEDTAVYYCARVEESGWYDHYHGMDVWGQGTTVTVSS
VL: DVVMTQSPLSLPVTPGEPASISCTSSQSLLYSNGFNYLDWYLQKPGQSPQLLIYLGSNRASGVPDRFSGSGSGTDFTLKISRVEAEDVGVYYCMQALTTHPTFGGGTKVDIK
B4: iCADM3_3R1-L5 VHH-hG4PE(R409K) (Fc fusion, not shown: a dimerising Fc or GST)
chain: QVQLVESGGGLVQAGGSLRLSCAASGSIVSVNAMGWYRQAPGKQRELVATITSGGSTNYADSAKGRFTISRDNAKNTMYLQMNSLKPEDTAVYYCNGEFWSRRDTRPPGVVNYWGQGTQVTVSS
B5: iCADM3_3R1-L8 VHH-hG4PE(R409K) (Fc fusion, not shown: a dimerising Fc or GST)
chain: QVQLVESGGGLVQPGGSLRLSCAASGRTFSNYARGWFRQAPGKEREFVAAIDYSGGSTNYADSAKGRFTISRDNAKNTVYLQMNSLKPGDTAVYYCAAPASRRPSWDADGYDYWGQGTQVTVSS
B6: iCADM3_3R1-L10 VHH-hG4PE(R409K) (Fc fusion, not shown: a dimerising Fc or GST)
chain: QVQLVESGGGLVQAGGSLRLSCAASGSIFSIHAMGWYRQAPGKQRELVATVTSGGSTNYADSVKGRFTISRDNAKNTVYLQMNSLKPEDTAVYYCNAETPYYSSTYYTNYWGQGTQVTVSS
B7: iCADM3_3R1-L11 VHH-hG4PE(R409K) (Fc fusion, not shown: a dimerising Fc or GST)
chain: QVQLVESGGGLVQAGGSLRLSCAASGSIFSFNAMGWYRQAPGKQRGLVAVITSGGYTNYADSVKGRFTITRDNAKNTVYLQMNSLKPEDTAVYYCNAEGVYSDYVIMNYWGQGTQVTVSS

Target: monkey CADM3 (cynomolgus monkey)
Assay: flow cytometry, 10 ug/mL, monkey CADM3/Expi293F vs parent Expi293F cells

monkey CADM3 (cynomolgus monkey), sequence (Q8N126 25-398 S206N limits assumed, form in doubt): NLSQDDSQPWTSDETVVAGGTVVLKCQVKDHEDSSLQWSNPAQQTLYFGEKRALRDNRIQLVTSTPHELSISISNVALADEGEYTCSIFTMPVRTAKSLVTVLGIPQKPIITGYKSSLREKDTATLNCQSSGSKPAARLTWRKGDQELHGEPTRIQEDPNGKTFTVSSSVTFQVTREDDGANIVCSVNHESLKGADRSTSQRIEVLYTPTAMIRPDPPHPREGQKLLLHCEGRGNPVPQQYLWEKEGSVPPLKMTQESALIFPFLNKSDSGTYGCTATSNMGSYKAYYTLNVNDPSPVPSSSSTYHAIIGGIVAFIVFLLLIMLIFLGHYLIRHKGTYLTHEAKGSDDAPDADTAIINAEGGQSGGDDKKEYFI

Binder | Mean fluorescence intensity ratio
B1 | 1.02
B2 | 5.72
B3 | 51.5
B4 | 26.6
B5 | 6.91
B6 | 36.5
B7 | 35.3
